This note sets out measurements from paper PMC5944921.

Test [1] has as its target GLA cross-linked soluble BG505 SOSIP trimer (GLA-SOSIP trimer) (HIV-1 BG505). As to the kind of experiment: SPR; ProteOn XPR36, GLC chip with human antibody capture kit; 2G12 captured, then about 600 RU of trimer; dilution series of Fab passed over for 180 s, 600 s buffer; HBS-EP+ pH 7.4 with 1 mg/mL BSA; binding index = signal ratio GLA-SOSIP trimer / SOSIP trimer. Background: Surface plasmon resonance follows binding to a sensor surface in real time, without labels.

The target is the same in test [2]. As to the kind of experiment: ELISA; capture ELISA: plates coated with 4 ug/mL mAb 2G12, SOSIP or GLA-SOSIP trimer (0.2 ug/mL) captured, titration series of biotinylated mAbs or ligand; binding index = AUC on GLA-SOSIP trimer / AUC on SOSIP trimer. Background: In an ELISA, binding on a coated surface is turned into a signal by an enzyme label.

Regarding PGT145 Fab, the fold loss of binding against SOSIP trimer (SPR binding index) in test [1] is 5.3 fold. With PGT145 (mAb) (antibody), in test [2], the fold loss of binding against SOSIP trimer (ELISA binding index) worked out at 3.3 fold.
